Results: patent US20230055566A1

Biological target: human FGFR2b (beta)-Fc (human) (UniProt P21802)
Experiment: SPR (Biacore), hFGFR2b-Fc immobilized on CM5 chip, antibody injected at 0-200 nM

Kd: 0.75 nM | koff: 7.77e-05 s⁻¹ | kon: 104000 M⁻¹ s⁻¹
Substance: FPA144 (antibody)
